Data as given in publication PMC11005340.

What was measured:
[1] = biological target: HIV-1AD8 Env N332E (HIV-1 (strain AD8))
[2] = biological target: HIV-1AD8 Env N332Y (HIV-1 (strain AD8))
[3] = biological target: HIV-1AD8 Env N332L (HIV-1 (strain AD8))

Measured: neutralisation of pseudovirus infection of Cf2-Th/CD4+CCR5+ cells, IC50 (one of the three changes with the highest resistance to PGT121)

PGT121 (antibody)
< 1 µg/mL: all assays above
